# Measurements as given in patent US20260159585A1 (SHANGHAI HENLIUS BIOTECH, published 2026).
# B1: M1 #21 (antibody, V domains shown)
# VH: QVQLQQWGAGLLKPSETLSLTCAVYGGSFSGYYWSWIRQPPGKGLEWIGEINQSGSTNYNPSLKSRVTISVDTSKNQFSLRLSSVTAADTAMYYCARFTGRPYYGMDVWGQGTTVTVSS
# VL: SYELTQPPSVSATPGQRVTISCSGSESNIGSHKVKWYQQFAGAAPRLLIHGNDQRFSGVPDRFSGSKSGTSASLAISGLQSEDEADYYCAAWDDSLYGRVFGGGTKLTVL
# Key:
# hCD47-His antigen [1] = target: T1, hCD47-His antigen (human, UniProt Q08722 19-139, limits assumed); assay: ELISA on coated hCD47-His, HRP anti-human Fc, OD450; plate3
# T1 construct: also called human CD47; not shown: His tag
# hCD47-His antigen [2] = target: T1, hCD47-His antigen; assay: ELISA on coated hCD47-His, HRP anti-human Fc, OD450; plate4
# hCD47-His antigen [3] = target: T1, hCD47-His antigen; assay: ELISA on coated hCD47-His, HRP anti-human Fc, OD450; plate1
# [4] = target: T2, human CD47 expressed on cells (human, UniProt Q08722 19-323); assay: FACS, whole cell binding to human primary red blood cells, FITC anti-human Fc; upper panel
# T2 construct: whole, on cells; One molecule for all cell types; also called CD47 on Jurkat cells; CD47 on human red blood cells (RBCs)
# hCD47-His antigen [5] = target: T1, hCD47-His antigen; assay: ELISA on coated hCD47-His, HRP anti-human Fc, OD450; plate2
# [6] = target: T2, human CD47 expressed on cells; assay: FACS, whole cell binding to human primary red blood cells, FITC anti-human Fc; lower panel
binder,measurement,setting,value
B1,EC50 (read off the curve),hCD47-His antigen [1],~0.1 nM
same,EC50 (read off the curve),hCD47-His antigen [2],~0.07 nM
same,EC50 (read off the curve),hCD47-His antigen [3],~0.1 nM
same,EC50 (read off the curve),[4],~0.2 nM
same,EC50 (read off the curve),hCD47-His antigen [5],~0.08 nM
same,EC50 (read off the curve),[6],~0.3 nM
